Experimental data published in US12606635B2, “Glypican-2-binding moieties, chimeric antigen receptors and uses thereof” (Nanjing Legend Biotech Co., Ltd., priority 2020, dated 2026).

What was measured:
[1] = test system: SH-SY5Y; test: IFNγ release in co-culture with SH-SY5Y; format: cell-based, human; conditions: for IFNγ release: Example 7, co-culture with SH-SY5Y, FIG. 8D-8F
Description: (§1) In addition to the cytotoxicity data above, supernatants from the in vitro co-culture assays were also collected to assess CAR T cells-induced cytokine release, e.g., release of interferon gamma (i.e., IFNγ), as another indicator of cytotoxicity, was quantified using a HTRF human IFNγ AlphaLISA kit (Perkin Elmer, #62HIFNGPEH) per manufacturer's instruction. […] No significant cytokine release were detected against GPC2-negative cell line A-431.
(§2) Supernatants from the in vitro co-culture assays were collected to assess CAR T cells-induced cytokine release, e.g., interferon gamma (i.e., IFNγ) release as described in Example 6. […] IFNγ was not induced in GPC2-negative A-431 cells. […] Cytokine release data was consistent with the in vitro cytotoxicity data.

[2] = test system: IMR-32; test: IFNγ release in co-culture with IMR-32; format: cell-based, human; conditions: Example 7, co-culture with IMR-32, FIG. 8D-8F
Description: as §1, §2

[3] = test system: neuroblastoma SH-SY5Y xenograft; format: in vivo, NCG mice; conditions: mouse, in vivo
Procedure: A single dose of untransduced T cells (10×10^6) or CAR T cells (5×10^6) was administered intravenously to tumor engrafted mice 9 days after tumor inoculation (FIG. 9A). […] At the end of obversion, 100% of monovalent CAR T cells (CAS70950VH6-BBz, CAS72669VH6-BBz) and 80% of multi-valent CAR T cells (CAS70950VH6-AS71529VH6-BBz) treated mice were alive (FIG. 9A). At day 42 post treatment, 2/5 mice (40%) treated with CAS72669VH6-BBz expressing CAR T cells were tumor-free and 3/5 mice (60%) treated with CAS70950VH6-AS71529VH6-BBz expressing CAR T cells were tumor-free without recurrence. […] The data highlighted the superiority of VHH-based CAR T cells in tumor regression and protection of mice from disease progression.
Moreover, the expansion and persistence of CAR T cells in vivo are also considered as critical predictors of durable clinical tumor regression in patients with cancer. […] Average 5.00±6.42% of CAR T cells were found in the peripheral blood of NCG mice treated with 5×10^6 CAS70950VH6-AS71529VH6-BBz CAR T cells, whereas less than 1% CAR T cells were detected in CAS70950VH6-BBz, CAS72669VH6-BBz and CAS71529VH6-BBz expressing CAR T groups. Expansion of CAR T cells in the CAS70950VH6-AS71529VH6-BBz group was inversely correlated with tumor size over time.

[4] = test system: SH-SY5Y; test: Serial challenge assay, CAR Ts with different co-stimulatory domains; format: cell-based, human
Description: To evaluate the persistence of GPC2 CAR T cells, exemplary CAR T cells were selected and tested in the serial challenge assay. Briefly, 4×10^5 SH-SY5Y cells and 1.33×10^5 CART cells transduced with GPC2-BBz, GPC2-CD28z, GPC2-CD27z, GPC2-CD2z, GPC2-ICOSz or GPC2-OX40z lentiviral vectors were co-cultured in 12 well plates using fresh growth medium without IL-2 (E:T ratio=1:3). Cells were harvested after three days co-culture and samples were taken for cell counting using AOPI and T cell quantified by FACs. CAR T cells were replated with fresh SH-SY5Y cells at a 1:2 E:T ratio in growth medium without IL-2 to start the next round of tumor co-culture. Samples were taken for cell counting and T cell quantification at the end of each challenge every three days. GPC2-BBz served as a positive control while the untransduced T cell (UnT) was used as a negative control.

B1: CAS71529VH6-BBz: humanized VHH anti-GPC2 CAR (4-1BB, CD3ζ), SEQ ID NO: 223; tested as CAR T cells (protein)
chain: MALPVTALLLPLALLLHAARPEVQLVESGGGLVQPGGSLRLSCAVSEYRYSSRYCMGWFRQAPGKGREGVAAIDSNGSADYVDSVKGRFTISKDNSKNTLYLQMNSLRAEDTAMYYCAADHLAYDCYSGATSVFRYWGQGTLVTVSSTTTPAPRPPTPAPTIASQPLSLRPEACRPAAGGAVHTRGLDFACDIYIWAPLAGTCGVLLLSLVITLYCKRGRKKLLYIFKQPFMRPVQTTQEEDGCSCRFPEEEEGGCELRVKFSRSADAPAYKQGQNQLYNELNLGRREEYDVLDKRRGRDPEMGGKPRRKNPQEGLYNELQKDKMAEAYSEIGMKGERRRGKGHDGLYQGLSTATKDTYDALHMQALPPR
modifications: expressed in CAR T cells; CAS71529VH6-BBz
IFNγ release [1]: high levels of IFNγ
IFNγ release [2]: high levels of IFNγ
percentage of CAR T cells in peripheral blood [3]: less than 1%

B2: GPC2-CD28z: SEQ ID NO: 248, GPC2 CAR T comprised CD28 and CD3 ζ intracellular signaling domains (protein)
chain: MALPVTALLLPLALLLHAARPEVQLVESGGGLVQPGGSLRLSCAISEFTYKNTCVGWFRQAPGKGREGVAAIDSDGNTNYVDSVKGRFTISQDNSKNTVYLQMNSLRAEDTAMYYCAAGAYCGRLLLWIGNYAYWGQGTLVTVSSIEVMYPPPYLDNEKSNGTIIHVKGKHLCPSPLFPGPSKPFWVLVVVGGVLACYSLLVTVAFIIFWVRSKRSRLLHSDYMNMTPRRPGPTRKHYQPYAPPRDFAAYRSRVKFSRSADAPAYKQGQNQLYNELNLGRREEYDVLDKRRGRDPEMGGKPRRKNPQEGLYNELQKDKMAEAYSEIGMKGERRRGKGHDGLYQGLSTATKDTYDALHMQALPPR
modifications: expressed in CAR T cells; GPC2-CD28z
IFNγ production against SH-SY5Y ([1]; GPC2 CAR Ts with different co-stimulatory domains, FIG. 13B): higher level of IFNγ production
long term persistence and CAR T cells expansion ([4]; serial SH-SY5Y challenge without IL-2, FIG. 14A and 14C): comparable level of long term persistence and CAR T cells expansion
CAR positive T cells percentage ([4]; serial SH-SY5Y challenge, FIG. 14B): expanded and reaching a peak level

B3: CAS72052VH5-BBz: humanized VHH anti-GPC2 CAR (4-1BB, CD3ζ), SEQ ID NO: 224; tested as CAR T cells (protein)
chain: MALPVTALLLPLALLLHAARPQVQLVESGGGVVQPGGSLRLSCAVSGFRYASYCMGWFRQAPGKGLEGVAAIHSDGIIRYAESVKGRFTISKDNSKNTLYLQMNSLRAEDTAVYYCAAGAYCGADAILTLYDYAFWGQGTLVTVSSTTTPAPRPPTPAPTIASQPLSLRPEACRPAAGGAVHTRGLDFACDIYIWAPLAGTCGVLLLSLVITLYCKRGRKKLLYIFKQPFMRPVQTTQEEDGCSCRFPEEEEGGCELRVKFSRSADAPAYKQGQNQLYNELNLGRREEYDVLDKRRGRDPEMGGKPRRKNPQEGLYNELQKDKMAEAYSEIGMKGERRRGKGHDGLYQGLSTATKDTYDALHMQALPPR
modifications: expressed in CAR T cells; CAS72052VH5-BBz
IFNγ release [1]: high levels of IFNγ
IFNγ release [2]: high levels of IFNγ
